Experiments:
[1] = target: BAK-488 (full-length mouse BAK L192K, F193S, Y196D, C154S, labelled with Atto 488) (mouse) (UniProt O08734); assay: single-molecule TIRF brightness (stoichiometry) analysis; 1, 5 or 10 nM labelled protein incubated 1 h with EPC:CL 8:2 LUVs (150 mM NaCl, 10 mM HEPES/KOH, pH 7.4), activated by heat (43°C), or 1 nM BAK-488 by 2 nM cBid; proteoliposomes diluted with LUVs and fused into supported lipid bilayers on glass; corrected for partial labelling
[2] = target: the molecule itself; assay: as above

Row | Molecule | stoichiometry N [1] | stoichiometry N [2]
1 | BAK-488 (full-length mouse BAK L192K, F193S, Y196D, C154S, labelled with Atto 488) (from UniProt O08734 1-209) (natural protein) | 2 | 
2 | BAX-488 (single-cysteine, full-length human BAX S4C, C62S, C126S, labelled with Atto 488) (natural protein, UniProt Q07812 1-192, looked up, Atto 488 covalently attached to the single cysteine, BAX, human, single-cysteine mutant (S4C, C62S, C126S); Plasmid pTYB1_hBAX-S4C,C62S, C126S from a previous study (doi 10.1038/ncomms9042); Labelling efficiency 84%; also called hBAX-S4C,C62S, C126S) MDGCGEQPRGGGPTSSEQIMKTGALLLQGFIQDRAGRMGGEAPELALDPVPQDASTKKLSESLKRIGDELDSNMELQRMIAAVDTDSPREVFFRVAADMFSDGNFNWGRVVALFYFASKLVLKALSTKVPELIRTIMGWTLDFLRERLLGWIQDQGGWDGLLSYFGTPTWQTVTIFVAGVLTASLTIWKKMG |  | ≤ 10
